Measurements from IntAct's records for PubMed 21529711.

B1: Protein nutcracker (Drosophila melanogaster (Fruit fly)), Q8SX86 (parent)
chain: MSDTKSEIEGFIAIPTTSGEQQQQQPQQQQNEQQVVGTKDIKAPDQVGKKQRPRLIQEKSTQETNPLILEHATLEWVPQHMDKLLNQYQECRKMPAAEWLHLLTYLVALECGFVEEETFAQKRHLIQPVPSFSSFHAQNVRILSEQPARYEVCFNDTVYIMRLRTLLDKHAPEETSLVAALQCRLMAVSLGDQLMITLSPAPPSKEPGYSVSLSIGRYVLNIQAKNKPIYHRFRKLDELSYQLKQHLFQPMRSQQLMQMEMKLQPSLLGLPDELYFEIFRYLDKSQLNVVARVNRHLHFYSKEVERKRLKGGRS
partner: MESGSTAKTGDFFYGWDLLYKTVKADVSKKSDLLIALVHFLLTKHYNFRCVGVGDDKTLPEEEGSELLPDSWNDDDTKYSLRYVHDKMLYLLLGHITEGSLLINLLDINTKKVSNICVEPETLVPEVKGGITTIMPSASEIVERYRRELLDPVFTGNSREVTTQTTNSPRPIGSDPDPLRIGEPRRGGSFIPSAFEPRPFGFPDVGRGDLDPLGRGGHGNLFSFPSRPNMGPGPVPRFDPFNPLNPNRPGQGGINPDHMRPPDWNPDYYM

Variants of: B1
Settings: with psmf1_drome PI31, Q9V637

Row | Variant | effect of a mutation on the interaction
1 | V188E | decreasing interaction
